The results in this text go back to patent US20210107969A1 (Johns Hopkins, published 2021).

The target in assay [1] is T1, human TGF-β1 (human, UniProt P01137 279-390, biotinylated in the FIG. 8C ELISA; unlabelled rhTGF-β1 in FIG. 9B/9C).
T1 construct: also called biotinylated huTGFb1; rhTGF-β1
Kind of assay: ELISA, protein coated, biotinylated huTGFb1 detected by avidin-HRP.

Assay [2] addresses T2, biotinylated huPD-L1 (human, UniProt Q9NZQ7 19-238, limits assumed, biotinylated (site not stated)).
T2 construct: it is treated here as the same reagent; also called biotinylated PD-L1
Put plainly: ELISA, antibody coated, biotinylated huPD-L1 detected by avidin-HRP.

T1 sequence (P01137 279-390 limits assumed): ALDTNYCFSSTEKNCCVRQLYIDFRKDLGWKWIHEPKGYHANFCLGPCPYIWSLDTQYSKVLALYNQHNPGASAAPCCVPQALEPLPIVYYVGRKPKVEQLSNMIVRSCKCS
T2 sequence (Q9NZQ7 19-238 limits assumed): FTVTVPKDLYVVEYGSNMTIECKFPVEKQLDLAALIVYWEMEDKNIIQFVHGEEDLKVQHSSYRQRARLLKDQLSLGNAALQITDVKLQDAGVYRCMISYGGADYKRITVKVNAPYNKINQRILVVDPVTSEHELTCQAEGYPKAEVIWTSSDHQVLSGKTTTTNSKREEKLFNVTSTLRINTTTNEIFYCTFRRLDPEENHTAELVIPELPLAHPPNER

B1: anti-VEGF (bevacizumab) (antibody, human IgG1, kappa, V domains shown)
VH: EVQLVESGGGLVQPGGSLRLSCAASGYTFTNYGMNWVRQAPGKGLEWVGWINTYTGEPTYAADFKRRFTFSLDTSKSTAYLQMNSLRAEDTAVYYCAKYPHYYGSSHWYFDVWGQGTLVTVSS
VL: DIQMTQSPSSLSASVGDRVTITCSASQDISNYLNWYQQKPGKAPKVLIYFTSSLHSGVPSRFSGSGSGTDFTLTISSLQPEDFATYYCQQYSTVPWTFGQGTKVEIKR
With B1, in assay [1], the binding result is “no binding”.

B2: anti-PD1 (nivolumab) (antibody, human IgG4 S228P, kappa, V domains shown)
VH: QVQLVESGGGVVQPGRSLRLDCKASGITFSNSGMHWVRQAPGKGLEWVAVIWYDGSKRYYADSVKGRFTISRDNSKNTLFLQMNSLRAEDTAVYYCATNDDYWGQGTLVTVSS
VL: EIVLTQSPATLSLSPGERATLSCRASQSVSSYLAWYQQKPGQAPRLLIYDASNRATGIPARFSGSGSGTDFTLTISSLEPEDFAVYYCQQSSNWPRTFGQGTKVEIKR
notes: Negative control in the PD-L1 ELISA
B2: in assay [2], the binding result is on record as “no binding”.
